Measurements taken from US20250109212A1.
Where a chain is given by its changes, count along the chain named.

B1: BSI038×S-004 (bispecific antibody, human IgG2, kappa)
heavy: EEELQVIQPDKSVSVAAGESAILHCTITSLIPVGPIQWFRGAGPARELIYNQREGHFPRVTTVSETTKRENMDFSISISNITPADAGTYYCVKFRKGSPDTEFKSGAGTELSVRAKPSAPVVSGPAARATPGGGGSGGGGSEVQLVESGGGLVKPGGSLRLSCAASGFTFSNYGISWVRQAPGKGLEWVSSISSGGDNTYYPDNVKGRFTISRDNAKNSLYLQMNSLRAEDTAVYYCARAGEKAMDYWGQGTLVTVSSASTKGPSVFPLAPCSRSTSESTAALGCLVKDYFPEPVTVSWNSGALTSGVHTFPAVLQSSGLYSLSSVVTVPSSNFGTQTYTCNVDHKPSNTKVDKTVERKCCVECPPCPAPPVAGPSVFLFPPKPKDTLMISRTPEVTCVVVDVSHEDPEVQFNWYVDGVEVHNAKTKPREEQFNSTFRVVSVLTVVHQDWLNGKEYKCKVSNKGLPAPIEKTISKTKGQPREPQVYTLPPSREEMTKNQVSLTCLVKGFYPSDIAVEWESNGQPENNYKTTPPMLDSDGSFFLYSKLTVDKSRWQQGNVFSCSVMHEALHNHYTQKSLSLSPGK
light: EIVLTQSPATLSLSPGERATLSCRASQTINNNLHWYQQKPGQAPRLLIKYASQSISGIPARFSGSGSGTDFTLTISSLEPEDFAVYFCQQFSSWPLTFGGGTKVEIKRTVAAPSVFIFPPSDEQLKSGTASVVCLLNNFYPREAKVQWKVDNALQSGNSQESVTEQDSKDSTYSLSSTLTLSKADYEKHKVYACEVTHQGLSSPVTKSFNRGEC
B2: BSI038×S-005 (bispecific antibody, human IgG2, kappa)
heavy: B1 heavy with K68R, F103V
light: B1 light
B3: SIRPαV2D1M1-Fc (IgG2) (Fc fusion)
chain: EEELQVIQPDKSVSVAAGESAILHCTITSLIPVGPIQWFRGAGPARELIYNQREGHFPRVTTVSETTKRENMDFSISISNITPADAGTYYCVKFRKGSPDTEFKSGAGTELSVRAKPSAPVVSGPAARATPGGGGSGGGGSERKCCVECPPCPAPPVAGPSVFLFPPKPKDTLMISRTPEVTCVVVDVSHEDPEVQFNWYVDGVEVHNAKTKPREEQFNSTFRVVSVLTVVHQDWLNGKEYKCKVSNKGLPAPIEKTISKTKGQPREPQVYTLPPSREEMTKNQVSLTCLVKGFYPSDIAVEWESNGQPENNYKTTPPMLDSDGSFFLYSKLTVDKSRWQQGNVFSCSVMHEALHNHYTQKSLSLSPGK
B4: SIRPαV2D1M2-Fc (IgG2) (Fc fusion)
chain: B3 chain with K68R, F103V

Target: full length human CD47 (NCBI #NP_942088.1) on 293F-CD47 cells (human) (UniProt Q08722)
Test: cell-based blocking FACS on 293F-CD47 cells, blocked ligand biotin-labeled human CD172a-Fc, MFI

Binder | IC50 [nM]
B1 | 1.8
B2 | 1.73
B3 | 1.84
B4 | 2.37
